In the supplement of paper PMC10567573:

B1: CCDC89 (parent)
chain: LNAELEEKMMQEAEKLKAQGEYSR
B2: EIF5 (parent)
chain: KQTIGNSCKACGYRGMLDTHHKLC

Variants of: B1
Assay: protein stability index of a GFP-peptide fusion (GPS, HEK-293T) (PSI 1-6); higher = more stable
Conditions: c terminus: a fixed tail appended
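Also: lentivirally expressed fusions sorted by FACS into six bins by GFP to DsRed ratio, PSI derived from sequencing read proportions per bin multiplied by bin number.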

**Q.** For LNAELEEKMMQEAEWLKAQGEYSR [K15W], which protein stability index is on record?
**A.** 4.41

**Q.** With LNAELEEKMMQEAEVLKAQGEYSR [K15V] as the variant, how does the protein stability index read?
**A.** 4.78

**Q.** For LNAELEEKMMQEAESLKAQGEYSR [K15S], which protein stability index is on record?
**A.** 4.38

**Q.** With LNAELEEKMMQEAEDLKAQGEYSR [K15D] as the variant, how does the protein stability index read?
**A.** 5.58

**Q.** For LNAELEEKMMQEAEALKAQGEYSR [K15A], which protein stability index is on record?
**A.** 5.41

**Q.** Which protein stability index does the source give for LNAELEEKMMQEAEGLKAQGEYSR [K15G] here?
**A.** 5.26

**Q.** With LNAELEEKMMQEAEQLKAQGEYSR [K15Q] as the variant, how does the protein stability index read?
**A.** 5.41

**Q.** With LNAELEEKMMQEAEELKAQGEYSR [K15E] as the variant, how does the protein stability index read?
**A.** 5.06

**Q.** With LNAELEEKMMQEAEPLKAQGEYSR [K15P] as the variant, how does the protein stability index read?
**A.** 5.38

**Q.** Which protein stability index does the source give for LNAELEEKMMQEAERLKAQGEYSR [K15R] here?
**A.** 4.84

**Q.** For LNAELEEKMMQEAEHLKAQGEYSR [K15H], which protein stability index is on record?
**A.** 5.2

**Q.** Which protein stability index does the source give for LNAELEEKMMQEAEMLKAQGEYSR [K15M] here?
**A.** 5.82

**Q.** With LNAELEEKMMQEAECLKAQGEYSR [K15C] as the variant, how does the protein stability index read?
**A.** 5.03

**Q.** Which protein stability index does the source give for LNAELEEKMMQEAEKLKAQGTYSR [E21T] here?
**A.** 4.19

**Q.** Which protein stability index does the source give for LNAELEEKMMQEAEKLKAQGWYSR [E21W] here?
**A.** 3.76

**Q.** For LNAELEEKMMQEAEKLKAQGGYSR [E21G], which protein stability index is on record?
**A.** 4.17

**Q.** With LNAELEEKMMQEAEKLKAQGNYSR [E21N] as the variant, how does the protein stability index read?
**A.** 4.79

**Q.** For LNAELEEKMMQEAEKLKAQGLYSR [E21L], which protein stability index is on record?
**A.** 4.16

**Q.** With LNAELEEKMMQEAEKLKAQGVYSR [E21V] as the variant, how does the protein stability index read?
**A.** 4.58

**Q.** For LNAELEEKMMQEAEKLKAQGYYSR [E21Y], which protein stability index is on record?
**A.** 5.03

**Q.** Which protein stability index does the source give for LNAELEEKMMQEAEKLKAQGAYSR [E21A] here?
**A.** 4.77

**Q.** For LNAELEEKMMQEAEKLKAQGCYSR [E21C], which protein stability index is on record?
**A.** 4.29

**Q.** Which protein stability index does the source give for LNAELEEKMMQEAEKLKAQGDYSR [E21D] here?
**A.** 4.92

**Q.** With LNAELEEKMMQEAEKLKAQGMYSR [E21M] as the variant, how does the protein stability index read?
**A.** 4.76

**Q.** Which protein stability index does the source give for LNAELEEKMMQEAEKLKAQGKYSR [E21K] here?
**A.** 5.46

**Q.** For LNAELEEKMMQEAEKLKAQGIYSR [E21I], which protein stability index is on record?
**A.** 4.62

**Q.** For LNAELEEKMMQEAEKLKAQGSYSR [E21S], which protein stability index is on record?
**A.** 4.39

**Q.** With LNAELEEKMMQEAEKLKAQGRYSR [E21R] as the variant, how does the protein stability index read?
**A.** 4.98

**Q.** Which protein stability index does the source give for LNAELEEKMMQEAEKLKAQGHYSR [E21H] here?
**A.** 4.47

**Q.** For LNAELEEKMMQEAEKGKAQGEYSR [L16G], which protein stability index is on record?
**A.** 5.09

**Q.** For LNAELEEKMMQEAEKKKAQGEYSR [L16K], which protein stability index is on record?
**A.** 4.85

**Q.** Which protein stability index does the source give for LNAELEEKMMQEAEKSKAQGEYSR [L16S] here?
**A.** 5.76

**Q.** Which protein stability index does the source give for LNAELEEKMMQEAEKNKAQGEYSR [L16N] here?
**A.** 5.17

**Q.** With LNAELEEKMMQEAEKVKAQGEYSR [L16V] as the variant, how does the protein stability index read?
**A.** 4.97

**Q.** With LNAELEEKMMQEAEKCKAQGEYSR [L16C] as the variant, how does the protein stability index read?
**A.** 5.36

**Q.** With LNAELEEKMMQEAEKPKAQGEYSR [L16P] as the variant, how does the protein stability index read?
**A.** 5.68

**Q.** With LNAELEEKMMQEAEKDKAQGEYSR [L16D] as the variant, how does the protein stability index read?
**A.** 5.77

**Q.** Which protein stability index does the source give for LNAELEEKMMQEAEKQKAQGEYSR [L16Q] here?
**A.** 4.65

**Q.** For LNAELEEKMMQEAEKAKAQGEYSR [L16A], which protein stability index is on record?
**A.** 5.1

**Q.** Which protein stability index does the source give for LNAELEEKMMQEAEKYKAQGEYSR [L16Y] here?
**A.** 4.37

**Q.** Which protein stability index does the source give for LNAELEEKMMQEAEKEKAQGEYSR [L16E] here?
**A.** 5.79

**Q.** For LNAELEEKMMQEAEKIKAQGEYSR [L16I], which protein stability index is on record?
**A.** 5.82

**Q.** Which protein stability index does the source give for LNAELEEKMMQEAEKWKAQGEYSR [L16W] here?
**A.** 4.6

**Q.** With LNAELEEKMMQEAEKTKAQGEYSR [L16T] as the variant, how does the protein stability index read?
**A.** 5.14

**Q.** For LNAELEEKMMQEAEKLHAQGEYSR [K17H], which protein stability index is on record?
**A.** 3.87

**Q.** With LNAELEEKMMQEAEKLGAQGEYSR [K17G] as the variant, how does the protein stability index read?
**A.** 4.93

**Q.** For LNAELEEKMMQEAEKLWAQGEYSR [K17W], which protein stability index is on record?
**A.** 3.79

**Q.** Which protein stability index does the source give for LNAELEEKMMQEAEKLIAQGEYSR [K17I] here?
**A.** 4.72

**Q.** Which protein stability index does the source give for LNAELEEKMMQEAEKLQAQGEYSR [K17Q] here?
**A.** 5.22

**Q.** Which protein stability index does the source give for LNAELEEKMMQEAEKLFAQGEYSR [K17F] here?
**A.** 4.3

**Q.** With LNAELEEKMMQEAEKLVAQGEYSR [K17V] as the variant, how does the protein stability index read?
**A.** 4.4

**Q.** With LNAELEEKMMQEAEKLCAQGEYSR [K17C] as the variant, how does the protein stability index read?
**A.** 4.02

**Q.** For LNAELEEKMMQEAEKLRAQGEYSR [K17R], which protein stability index is on record?
**A.** 4.41

**Q.** Which protein stability index does the source give for LNAELEEKMMQEAEKLYAQGEYSR [K17Y] here?
**A.** 4.43

**Q.** With LNAELEEKMMQEAEKLPAQGEYSR [K17P] as the variant, how does the protein stability index read?
**A.** 5.65

**Q.** With LNAELEEKMMQEAEKLLAQGEYSR [K17L] as the variant, how does the protein stability index read?
**A.** 4.54

**Q.** For LNAELEEKMMQEAEKLDAQGEYSR [K17D], which protein stability index is on record?
**A.** 5.47

Variants of: B2
Assay: as above
Conditions: c terminus: a fixed tail appended

**Q.** Which protein stability index does the source give for KQTIGNSCKACGYRGMLDTHHKLF [C24F] here?
**A.** 2.24

**Q.** With KQTNGNSCKACGYRGMLDTHHKLC [I4N] as the variant, how does the protein stability index read?
**A.** 3.63

**Q.** For KQTQGNSCKACGYRGMLDTHHKLC [I4Q], which protein stability index is on record?
**A.** 4.17

**Q.** For KQTIGNSCKACGYRGMLDTHCKLC [H21C], which protein stability index is on record?
**A.** 3.17

**Q.** With HQTIGNSCKACGYRGMLDTHHKLC [K1H] as the variant, how does the protein stability index read?
**A.** 2.95

**Q.** Which protein stability index does the source give for LQTIGNSCKACGYRGMLDTHHKLC [K1L] here?
**A.** 2.9

**Q.** For KFTIGNSCKACGYRGMLDTHHKLC [Q2F], which protein stability index is on record?
**A.** 2.54

**Q.** For KQTIGNSCKACGYRGMPDTHHKLC [L17P], which protein stability index is on record?
**A.** 3.88

**Q.** Which protein stability index does the source give for KQTIGNSCKACGYRGMHDTHHKLC [L17H] here?
**A.** 3.63

**Q.** Which protein stability index does the source give for KQTIGNSCKACGYRGMGDTHHKLC [L17G] here?
**A.** 3.77

**Q.** For KQTIGNSCKACGYAGMLDTHHKLC [R14A], which protein stability index is on record?
**A.** 2.93

**Q.** With KQTIGNSCKACDYRGMLDTHHKLC [G12D] as the variant, how does the protein stability index read?
**A.** 2.13

**Q.** With KQTIGNSCSACGYRGMLDTHHKLC [K9S] as the variant, how does the protein stability index read?
**A.** 2.88

**Q.** With KQTIGNSCDACGYRGMLDTHHKLC [K9D] as the variant, how does the protein stability index read?
**A.** 3.87

**Q.** With KQTIGNSCHACGYRGMLDTHHKLC [K9H] as the variant, how does the protein stability index read?
**A.** 3.08

**Q.** Which protein stability index does the source give for KQTIGNSCAACGYRGMLDTHHKLC [K9A] here?
**A.** 3.57

**Q.** Which protein stability index does the source give for KQTIGNSCKACGYRDMLDTHHKLC [G15D] here?
**A.** 2.94

**Q.** With KQTIGNSCKACGYRGQLDTHHKLC [M16Q] as the variant, how does the protein stability index read?
**A.** 3.9

**Q.** For KQTIGNSCKACGYRGTLDTHHKLC [M16T], which protein stability index is on record?
**A.** 4.14

**Q.** Which protein stability index does the source give for KQTIGNSCKACGYRGDLDTHHKLC [M16D] here?
**A.** 4.72

**Q.** For KQTIGNSCKACGYRGMLDQHHKLC [T19Q], which protein stability index is on record?
**A.** 3.03

**Q.** For KQTIGNSCKACGQRGMLDTHHKLC [Y13Q], which protein stability index is on record?
**A.** 3.29

**Q.** Which protein stability index does the source give for KQTIGNSCKACGPRGMLDTHHKLC [Y13P] here?
**A.** 2

**Q.** Which protein stability index does the source give for KQTIGNSCKACGWRGMLDTHHKLC [Y13W] here?
**A.** 2.45

**Q.** With KQTIGNSCKACGVRGMLDTHHKLC [Y13V] as the variant, how does the protein stability index read?
**A.** 2.91

**Q.** With KQTIGNSCKACGLRGMLDTHHKLC [Y13L] as the variant, how does the protein stability index read?
**A.** 2.94

**Q.** Which protein stability index does the source give for KQTIRNSCKACGYRGMLDTHHKLC [G5R] here?
**A.** 2.53

**Q.** Which protein stability index does the source give for KQTIGNSCKACGYRGMLDTHHCLC [K22C] here?
**A.** 4.4

**Q.** For KQTIGNSCKACGYRGMLDTHHELC [K22E], which protein stability index is on record?
**A.** 2.96

**Q.** Which protein stability index does the source give for KQTIGNSCKACGYRGMLDTVHKLC [H20V] here?
**A.** 2.15

**Q.** For KQTIGNSCKACGYRGMLDTHHKIC [L23I], which protein stability index is on record?
**A.** 2.86

**Q.** With KQTIGNSCKACGYRGMLDTHHKMC [L23M] as the variant, how does the protein stability index read?
**A.** 3.42

**Q.** With KQTIGNSCKHCGYRGMLDTHHKLC [A10H] as the variant, how does the protein stability index read?
**A.** 4.19

**Q.** For KQTIGNSCKNCGYRGMLDTHHKLC [A10N], which protein stability index is on record?
**A.** 2.85

**Q.** Which protein stability index does the source give for KQTIGNSCKKCGYRGMLDTHHKLC [A10K] here?
**A.** 3.29

**Q.** With KQTIGNSIKACGYRGMLDTHHKLC [C8I] as the variant, how does the protein stability index read?
**A.** 1.74

**Q.** With KQTIGNSPKACGYRGMLDTHHKLC [C8P] as the variant, how does the protein stability index read?
**A.** 1.88
